From US20240293512A1 (HANMI PHARM, published 2024)
Bridge positions count the residues as written; N and C are the ends. Square brackets hold non-standard residues; d marks the D form. Ends that are not written are not given here. * marks the point of attachment. Acetyl(2-(4-imidazolyl)) = O=C(Cc1c[nH]cn1)*; Aib = CC(C)(N)C(=O)O

How the values were obtained:
Assay in all cases: cell-based or functional assay
human GIP receptor = biological target: T1, human GIP receptor (human, UniProt P48546 22-466)
T1 sequence (looked up): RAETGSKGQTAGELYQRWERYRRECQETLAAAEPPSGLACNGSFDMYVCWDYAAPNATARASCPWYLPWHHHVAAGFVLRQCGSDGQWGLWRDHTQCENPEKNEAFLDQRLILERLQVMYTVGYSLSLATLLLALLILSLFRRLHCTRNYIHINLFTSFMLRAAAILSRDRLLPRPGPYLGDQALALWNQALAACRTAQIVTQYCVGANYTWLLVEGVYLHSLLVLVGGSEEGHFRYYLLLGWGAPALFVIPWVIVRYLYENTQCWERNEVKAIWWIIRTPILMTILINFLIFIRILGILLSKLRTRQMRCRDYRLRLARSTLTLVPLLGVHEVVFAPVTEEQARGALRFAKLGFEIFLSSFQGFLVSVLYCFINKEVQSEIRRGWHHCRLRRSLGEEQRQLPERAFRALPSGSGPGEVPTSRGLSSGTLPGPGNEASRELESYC

human GCG receptor = human GCG receptor (human, UniProt P47871 26-477)
Chain of human GCG receptor (P47871 26-477): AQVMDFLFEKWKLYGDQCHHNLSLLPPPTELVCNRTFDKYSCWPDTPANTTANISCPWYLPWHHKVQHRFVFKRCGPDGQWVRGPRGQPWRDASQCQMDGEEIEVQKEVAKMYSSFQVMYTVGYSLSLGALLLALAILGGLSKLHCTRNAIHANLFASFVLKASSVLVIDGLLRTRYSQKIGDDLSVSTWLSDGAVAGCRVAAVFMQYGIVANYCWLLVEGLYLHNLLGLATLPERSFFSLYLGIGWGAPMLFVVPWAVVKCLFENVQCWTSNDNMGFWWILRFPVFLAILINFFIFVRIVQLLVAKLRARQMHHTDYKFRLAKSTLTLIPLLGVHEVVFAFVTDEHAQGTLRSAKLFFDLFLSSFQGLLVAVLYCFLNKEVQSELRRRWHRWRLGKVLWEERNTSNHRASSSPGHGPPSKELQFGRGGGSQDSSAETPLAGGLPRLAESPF

human GLP-1 receptor = human GLP-1 receptor (human, UniProt P43220 24-463)

[Acetyl(2-(4-imidazolyl))][Aib]QGTFTSDYSIAMDEIHQKDFVNWLLNTC (bridge 16-20) [triple agonist of SEQ ID NO: 87]
In vitro activity compared with native peptide (%) vs GIP (cAMP EC50) (human GIP receptor): < 0.1%
In vitro activity compared with native peptide (%) vs Glucagon (cAMP EC50) (human GCG receptor): < 0.1%
In vitro activity compared with native peptide (%) vs GLP-1 (cAMP EC50) (human GLP-1 receptor): 0.9%

[Acetyl(2-(4-imidazolyl))][Aib]QGTFTSDYSIAMDEIHQKDFVNWLLNTKC (bridge 16-20) [triple agonist of SEQ ID NO: 94]
In vitro activity compared with native peptide (%) vs GIP (cAMP EC50) (human GIP receptor): < 0.1%
In vitro activity compared with native peptide (%) vs Glucagon (cAMP EC50) (human GCG receptor): < 0.1%
In vitro activity compared with native peptide (%) vs GLP-1 (cAMP EC50) (human GLP-1 receptor): 0.5%

[Acetyl(2-(4-imidazolyl))][Aib]QGTFTSDYSIAMDEIHQKDFVNWLLAQKC (bridge 16-20) [triple agonist of SEQ ID NO: 92]
In vitro activity compared with native peptide (%) vs GIP (cAMP EC50) (human GIP receptor): 0.4%
In vitro activity compared with native peptide (%) vs Glucagon (cAMP EC50) (human GCG receptor): < 0.1%
In vitro activity compared with native peptide (%) vs GLP-1 (cAMP EC50) (human GLP-1 receptor): 0.8%

[Acetyl(2-(4-imidazolyl))][Aib]EGTFTSDYSIAMDEIHQKDFVDWLLAEC (bridge 16-20) [triple agonist of SEQ ID NO: 84]
In vitro activity compared with native peptide (%) vs GIP (cAMP EC50) (human GIP receptor): < 0.1%
In vitro activity compared with native peptide (%) vs Glucagon (cAMP EC50) (human GCG receptor): < 0.1%
In vitro activity compared with native peptide (%) vs GLP-1 (cAMP EC50) (human GLP-1 receptor): 4.2%

[Acetyl(2-(4-imidazolyl))][Aib]QGTFTSDYSKYLDEKRQKEFVQWLLDTC (bridge 16-20) [triple agonist of SEQ ID NO: 82]
In vitro activity compared with native peptide (%) vs GIP (cAMP EC50) (human GIP receptor): < 0.1%
In vitro activity compared with native peptide (%) vs Glucagon (cAMP EC50) (human GCG receptor): 1.1%
In vitro activity compared with native peptide (%) vs GLP-1 (cAMP EC50) (human GLP-1 receptor): 9.5%

H[Aib]QGTFTSDYSKYLDEKRQKEFVQWLLDTKC (bridge 16-20) [triple agonist of SEQ ID NO: 78]
In vitro activity compared with native peptide (%) vs GIP (cAMP EC50) (human GIP receptor): 0.12%
In vitro activity compared with native peptide (%) vs Glucagon (cAMP EC50) (human GCG receptor): 14%
In vitro activity compared with native peptide (%) vs GLP-1 (cAMP EC50) (human GLP-1 receptor): 51%

[Acetyl(2-(4-imidazolyl))][Aib]QGTFTSDYSKYLDEKRQKEFVNWLLAQC (bridge 16-20) [triple agonist of SEQ ID NO: 86]
In vitro activity compared with native peptide (%) vs GIP (cAMP EC50) (human GIP receptor): 0.2%
In vitro activity compared with native peptide (%) vs Glucagon (cAMP EC50) (human GCG receptor): 0.4%
In vitro activity compared with native peptide (%) vs GLP-1 (cAMP EC50) (human GLP-1 receptor): 28.4%

[Acetyl(2-(4-imidazolyl))][Aib]EGTFTSDYSIAMDEIHQKDFVDWLLAEKC (bridge 16-20) [triple agonist of SEQ ID NO: 91]
In vitro activity compared with native peptide (%) vs GIP (cAMP EC50) (human GIP receptor): 0.3%
In vitro activity compared with native peptide (%) vs Glucagon (cAMP EC50) (human GCG receptor): 16.8%
In vitro activity compared with native peptide (%) vs GLP-1 (cAMP EC50) (human GLP-1 receptor): 31.9%

H[Aib]EGTFTSDYSIAMDEIHQKDFVDWLLAEKC (bridge 16-20) [triple agonist of SEQ ID NO: 80]
In vitro activity compared with native peptide (%) vs GIP (cAMP EC50) (human GIP receptor): 0.1%
In vitro activity compared with native peptide (%) vs Glucagon (cAMP EC50) (human GCG receptor): 0%
In vitro activity compared with native peptide (%) vs GLP-1 (cAMP EC50) (human GLP-1 receptor): 8.1%

[Acetyl(2-(4-imidazolyl))][Aib]EGTFTSDYSIAMDEIHQKDFVNWLLAQC (bridge 16-20) [triple agonist of SEQ ID NO: 83]
In vitro activity compared with native peptide (%) vs GIP (cAMP EC50) (human GIP receptor): 0.4%
In vitro activity compared with native peptide (%) vs Glucagon (cAMP EC50) (human GCG receptor): 1.3%
In vitro activity compared with native peptide (%) vs GLP-1 (cAMP EC50) (human GLP-1 receptor): 47.3%

H[Aib]QGTFTSDVSKYLDGQAAQEFVAWLLAGC [triple agonist of SEQ ID NO: 9]
In vitro activity compared with native peptide (%) vs GIP (cAMP EC50) (human GIP receptor): < 0.1%
In vitro activity compared with native peptide (%) vs Glucagon (cAMP EC50) (human GCG receptor): 0.13%
In vitro activity compared with native peptide (%) vs GLP-1 (cAMP EC50) (human GLP-1 receptor): 32.1%

H[Aib]EGTFTSDYSIAMDEIHQKDFVNWLLAQKC (bridge 16-20) [triple agonist of SEQ ID NO: 79]
In vitro activity compared with native peptide (%) vs GIP (cAMP EC50) (human GIP receptor): 1.4%
In vitro activity compared with native peptide (%) vs Glucagon (cAMP EC50) (human GCG receptor): 4.9%
In vitro activity compared with native peptide (%) vs GLP-1 (cAMP EC50) (human GLP-1 receptor): 41.5%

[Acetyl(2-(4-imidazolyl))][Aib]QGTFTSDYSKYLDEKRQKEFVQWLLDTKC (bridge 16-20) [triple agonist of SEQ ID NO: 89]
In vitro activity compared with native peptide (%) vs GIP (cAMP EC50) (human GIP receptor): < 0.1%
In vitro activity compared with native peptide (%) vs Glucagon (cAMP EC50) (human GCG receptor): 0.7%
In vitro activity compared with native peptide (%) vs GLP-1 (cAMP EC50) (human GLP-1 receptor): 7.1%

[Acetyl(2-(4-imidazolyl))][Aib]EGTFTSDYSIAMDEIHQKDFVNWLLAQKC (bridge 16-20) [triple agonist of SEQ ID NO: 90]
In vitro activity compared with native peptide (%) vs GIP (cAMP EC50) (human GIP receptor): < 0.1%
In vitro activity compared with native peptide (%) vs Glucagon (cAMP EC50) (human GCG receptor): < 0.1%
In vitro activity compared with native peptide (%) vs GLP-1 (cAMP EC50) (human GLP-1 receptor): 7.4%

[Acetyl(2-(4-imidazolyl))][Aib]QGTFTSDYSIAMDEIHQKDFVNWLLAQC (bridge 16-20) [triple agonist of SEQ ID NO: 85]
In vitro activity compared with native peptide (%) vs GIP (cAMP EC50) (human GIP receptor): 0.3%
In vitro activity compared with native peptide (%) vs Glucagon (cAMP EC50) (human GCG receptor): < 0.1%
In vitro activity compared with native peptide (%) vs GLP-1 (cAMP EC50) (human GLP-1 receptor): 4.3%

[Acetyl(2-(4-imidazolyl))][Aib]QGTFTSDYSKYLDEKRQKEFVQWLLNTKC (bridge 16-20) [triple agonist of SEQ ID NO: 88]
In vitro activity compared with native peptide (%) vs GIP (cAMP EC50) (human GIP receptor): < 0.1%
In vitro activity compared with native peptide (%) vs Glucagon (cAMP EC50) (human GCG receptor): 0.3%
In vitro activity compared with native peptide (%) vs GLP-1 (cAMP EC50) (human GLP-1 receptor): 9.6%

[Acetyl(2-(4-imidazolyl))][Aib]QGTFTSDYSKYLDEKRQKEFVQWLLNTC (bridge 16-20) [triple agonist of SEQ ID NO: 81]
In vitro activity compared with native peptide (%) vs GIP (cAMP EC50) (human GIP receptor): < 0.1%
In vitro activity compared with native peptide (%) vs Glucagon (cAMP EC50) (human GCG receptor): 0.3%
In vitro activity compared with native peptide (%) vs GLP-1 (cAMP EC50) (human GLP-1 receptor): 7.8%

[Acetyl(2-(4-imidazolyl))][Aib]QGTFTSDYSKYLDEKRQKEFVNWLLAQKC (bridge 16-20) [triple agonist of SEQ ID NO: 93]
In vitro activity compared with native peptide (%) vs GIP (cAMP EC50) (human GIP receptor): 0.7%
In vitro activity compared with native peptide (%) vs Glucagon (cAMP EC50) (human GCG receptor): 0.3%
In vitro activity compared with native peptide (%) vs GLP-1 (cAMP EC50) (human GLP-1 receptor): 5.7%

H[Aib]QGTFTSDVSKYLDGQAAQEFVAWLLAGGGPSSGAPPPSC [triple agonist of SEQ ID NO: 10]
In vitro activity compared with native peptide (%) vs GIP (cAMP EC50) (human GIP receptor): < 0.1%
In vitro activity compared with native peptide (%) vs Glucagon (cAMP EC50) (human GCG receptor): < 0.1%
In vitro activity compared with native peptide (%) vs GLP-1 (cAMP EC50) (human GLP-1 receptor): 46%
